According to patent US20030028002A1, “Cyclin D binding factor, and uses thereof” (published 2003):

T1: GST-DMP1 fusion protein (GST fused to residues 176-761 of DMP1)
T1 chain: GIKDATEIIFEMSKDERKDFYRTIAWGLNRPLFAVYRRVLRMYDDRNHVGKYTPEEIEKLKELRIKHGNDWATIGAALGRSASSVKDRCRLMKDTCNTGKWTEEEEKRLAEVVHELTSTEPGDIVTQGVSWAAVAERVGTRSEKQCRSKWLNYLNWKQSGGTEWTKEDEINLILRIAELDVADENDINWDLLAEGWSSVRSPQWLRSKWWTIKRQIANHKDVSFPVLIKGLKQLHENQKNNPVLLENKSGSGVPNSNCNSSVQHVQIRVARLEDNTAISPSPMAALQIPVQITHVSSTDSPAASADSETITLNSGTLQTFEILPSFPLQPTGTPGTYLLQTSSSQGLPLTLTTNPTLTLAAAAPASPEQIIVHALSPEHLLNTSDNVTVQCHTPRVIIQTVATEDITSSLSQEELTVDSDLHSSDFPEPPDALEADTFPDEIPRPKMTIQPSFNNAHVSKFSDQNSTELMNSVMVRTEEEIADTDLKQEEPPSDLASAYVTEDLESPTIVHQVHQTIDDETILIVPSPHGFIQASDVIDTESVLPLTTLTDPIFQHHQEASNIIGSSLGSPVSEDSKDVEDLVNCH

B1: cyclin D1-CDK4 complex (protein)
chain 1: MEHQLLCCEVETIRRAYPDTNLLNDRVLRAMLKTEETCAPSVSYFKCVQKEIVPSMRKIVATWMLEVCEEQKCEEEVFPLAMNYLDRFLSLEPLKKSRLQLLGATCMFVASKMKETIPLTAEKLCIYTDNSIRPEELLQMELLLVNKLKWNLAAMTPHDFIEHFLSKMPEADENKQTIRKHAQTFVALCATDVKFISNPPSMVAAGSVVAAMQGLNLGSPNNFLSCYRTTHFLSRVIKCDPDCLRACQEQIEALLESSLRQAQQNVDPKATEEEGEVEEEAGLACTPTDVRDVDI
chain 2: MAATRYEPVAEIGVGAYGTVYKARDPHSGHFVALKSVRVPNGGAAGGGLPVSTVREVALLRRLEAFEHPNVVRLMDVCATSRTDRDIKVTLVFEHIDQDLRTYLDKAPPPGLPVETIKDLMRQFLSGLDFLHANCIVHRDLKPENILVTSNGTVKLADFGLARIYSYQMALTPVVVTLWYRAPEVLLQSTYATPVDMWSVGCIFAEMFRRKPLFCGNSEADQLGKIFDLIGLPPEDDWPREVSLPRGAFAPRGPRPVQSVVPEMEESGAQLLLEMLTFNPHKRISAFRALQHSYLHKEESDAE
B2: cyclin D2-CDK4 complex (protein)
chain 1: MELLCCEVDPVRRAVPDRNLLEDRVLQNLLTIEERYLPQCSYFKCVQKDIQPYMRRMVATWMLEVCEEQKCEEEVFPLAMNYLDRFLAGVPTPKTHLQLLGAVCMFLASKLKETIPLTAEKLCIYTDNSVKPQELLEWELVVLGKLKWNLAAVTPHDFIEHILRKLPQQKEKLSLIRKHAQTFIALCATDFKFAMYPPSMIATGSVGAAICGLQQDDEVNTLTCDALTELLAKITHTDVDCLKACQEQIEALLLNSLQQFRQEQHNAGSKSVEDPDQATTPTDVRDVDL
chain 2: B1 chain 2
B3: cyclin D3-CDK4 complex (protein)
chain 1: MELLCCEGTRHAPRAGPDPRLLGDQRVLQSLLRLEERYVPRASYFQCVQKEIKPHMRKMLAYWMLEVCEEQRCEEDVFPLAMNYLDRYLSCVPTRKAQLQLLGTVCLLLASKLRETTPLTIEKLCIYTDQAVAPWQLREWEVLVLGKLKWDLAAVIAHDFLALILHRLSLPSDRQALVKKHAQTFLALCATDYTFAMYPPSMIATGSIGAAVLGLGACSMSADELTELLAGITGTEVDCLRACQEQIEAALRESLREAAQTAPSPVPKAPRGSSSQGPSQTSTPTDVTAIHL
chain 2: B1 chain 2

Target: T1, GST-DMP1 fusion protein (GST fused to …)

| Protein | in vitro phosphorylation of the GST fusion protein by Sf9 lysates (32P) |
| --- | --- |
| B1 | lysates containing active cyclin D-CDK4 complexes phosphorylate both |
| B2 | lysates containing active cyclin D-CDK4 complexes phosphorylate both |
| B3 | different preparations of cyclin D3-CDK4 are routinely more active than D2- or D1-containing holoenzymes in phosphorylating DMP1 |

Target: GST-RB fusion protein [GST: P08515]
Sequence (P08515 whole entry, looked up, the tested form may be a part): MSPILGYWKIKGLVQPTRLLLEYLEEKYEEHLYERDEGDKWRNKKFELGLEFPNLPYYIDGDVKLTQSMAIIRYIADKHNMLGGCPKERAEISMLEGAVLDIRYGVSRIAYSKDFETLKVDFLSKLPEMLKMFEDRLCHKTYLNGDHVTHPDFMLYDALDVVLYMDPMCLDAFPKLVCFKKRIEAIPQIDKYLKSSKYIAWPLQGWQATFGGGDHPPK

| Protein | in vitro phosphorylation of the GST fusion protein by Sf9 lysates (32P) |
| --- | --- |
| B1 | Under equivalent conditions, GST-RB is always a preferred substrate |
| B2 | Under equivalent conditions, GST-RB is always a preferred substrate |
| B3 | Under equivalent conditions, GST-RB is always a preferred substrate |
